Among the data in the NTF2 design screens of Basanta et al. (2020) are protease stability score values, retold here.

The data set is described as follows: protease stability score; higher = more stable; yeast display proteolysis, trypsin and chymotrypsin.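 Also: relative to predicted unfolded state with 0 unfolded-like and 1 meaning tenfold more protease.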
Regarding “SEWEHNLQRFIEELIEDARTGNEENIRENMDPDVRAEVDGQELHGREAQRFVRERIDVIKHNHLREIRFQGDFIHVRGELRGEVNGKEVHTDTHFVIWKFNGRWIIRHVLIR”, the protease stability score was 1.03.

Turning to “SEWEKDLELALRFVMHAFTTGNWEDLLKFFDPDVRIEVGDKEIHGRHVFFEFLEKLGVKHLRLEIELNHFEIQGDKIHEHGIYRFTYHYNGRVEKKEHDTRVHVTKINGRWYLTHQRVD”, the protease stability score worked out at 0.668.

In turn, “SEWEKQLRHMVHLVLLAVRTGNEHLLNELLDPDTRAVFNGVESVGREDMWRMLKHLRIERVRVHDERHDDQGNKARFILLGETQVNVNGKVLETHTEIEIILIKVDGQWTFETLTFRIT” had a protease stability score of 1.55.

For the sequence “SEYEDLIKTALHLWHEIFLTGNEDVLHRLIDPHVRVTFNGVRNHGRDYLLHHIEELGMEHHNFDISHVDMQGDKIILYTFLHAHVNGRTTSFQLHIFWIKVNGRWIVKRVEIR”, the protease stability score was determined as 0.759.

“SEYEEEMRETLELTALYMRTGNEEDMKELMDPDAKIDVGDKHFHGREQVLHVIKHWRSKHIILREVDFQGEYIHSNGQVTTLINGRELDVESRWIILKVDGRWLVHSVLYL”: the protease stability score came to 0.758.

Consider “SEYEEESRIAYELFLETVRTGDEDTSREQADPNVRVDVNGVHLHGRELWAEFVSKYKGMQLDLHHVEIQGNKVTNDGTLTVNGVRRKVHLRINKVNGKWILESVHIH”, for which the protease stability score turned out to be 1.32.

In turn, “SEYEEEVRRAMELEIRSIKTGNEELIKHLMDPNVRLVIGDKNFHGREAIEVFVERFDYIHEVEITSIDLQGDFVNMRGVLDGRINGQRLRTKVHYISRKVDGRWFSESIHIR” had a protease stability score of 0.66.

“SEYEEFLKEALRILIDDILTGDWRLVYKLFDPETRLNVNGQEIHGRDDVVHHLTHIAREWRMDVKVKEYNVFDGQIHMFGHLQLEFDGREYRRRVELIIIKFNGQWHLRQVVKH” showed a protease stability score of 1.58.

In turn, “SEYEEWSERHLKHWEDARDTGDFDSETDLLDPHMRFQLIIGEKRVRFHGMEVLIEHVLRFKNATVREQKSHVEVIDGRIYIRLEGRYDVNGKDFDVEIIIISEKVNGRWILRYIEIRIH” registered a protease stability score of 1.55.

As for “SEYEHEAREVMHRLIHATETGDEEQILRMIDPHVRIDINGVELIGWRHLEEYLRRIDVVYIRIDARRVDVQGDKIRVDTEMDVEVDYDGRKFRHKEKTIIFMHKVDGRWLITSFHVL”, the protease stability score came to 2.7.

“SEYERDFRYAFNIYARDVLTGDEESLRRLLDPNMRIDVNGVHIHGREHLLQIWHEIRIHHFEIDLKHIEVQGNKIHVHGETHIDGEINGQRDEFKIRDSLLVLKVNGKWIFKRFIVD” came in with a protease stability score of 0.951.

For the sequence “SEYYEESKRMAEEHQHMRETGDEDRLRHLMDPTTKVEVGDKEFHGREWWHEFYKRFDHIEFRIHDIKLIDGVAIIQSIIIVRQGDKSDTLHVTIRITKVNGRWRTKSFEVI”, the protease stability score came to 1.48.

“SHDEDRLREMIERWVEFMITGDEDRLRELADPNMRIHVNGKDLHGREEYARWINELGVKHIEITHVDLQGDKIDIVTELRFDGRTHDIHIKARKIDGRWHLTEFREE” displayed a protease stability score of 1.34.

The sequence “SHDEELVERVLKMYKHAIETGDEELLTLLLDPDTRLEIDGVDFHGMDIAIHILFKELLRHGIRTEHMRVEDVKVQGDFVHVDVEVNIDVDGREETERRHLVLWKFNGRWRVKHHHIH” had a protease stability score of 2.35.

“SHDEEQVDRFLKLWSHAVMTGDWKFMYELLDPHTRLVINGKNVHGREEISKFFHDHVSRIKNLKIEVHLNEVRIFDGRAHLDIEVRIHIGDKNHTIHVEIVVEKVDGRWHVHSIHEK” yielded a protease stability score of 1.36.

For the sequence “SHDEEWARRFFEDFVRAILTGDEEHLFKNVDPNVRVEIGDKELHGREDFHQHLHEIRIKRFEVHDLTLQGEKVEEDIEMDGQVNGQRFRTRQRVVVDWVNGRFHHLKIEWE”, the protease stability score was 0.715.

The sequence “SHDELLATRLVEEVWELWLTGDEDRTAELLDPDVRFFFIVGDKTHTFHGRDKIRKLMHDLRNHWRIHHIRIERFRVQGEYSEFDVRSHGRYNGVEEETTVHLSLDVVNGKVKRIIVHIR” gave a protease stability score of 1.6.

“SHEDELIEKTLHITLEAYTTGDEHTVTRMLDPHVKILFNGVELIGRELVWEHLKEIRMHWHHVHIEDIKRQGEKIHITGRLYMEIRQGDYRERSTYRTRIITLKINGRWFIESLEIN” registered a protease stability score of 1.95.

Regarding “SHEDELIERFYKWLIHILETGDEERWMEYADPDARLLYNGKDLIGRDEARRQMHEMRFHHMEVKSIRVVDGKVNVTGRIDGEINGRHHEHEVLLVIIKFNGKWLIKTVQFH”, the protease stability score was found to be 1.22.

Sequence “SHEDELNEKIAKTFFKDLLTGDEDSITHLLDPNARVHIHVNGRHILIHGREWLEYLKKHARIRHFELHDMEIQGDKLIFDVEVVIEYGDKVIERRSEEILILFNGRVTSYHLIIK” returned a protease stability score of 1.2.

With “SHEDELSRHILETWKEILDTGDEHTEHELADPNTRIEVDGRDIMGWHAWNHFLRKMGIKHIHFERVSIQGNKIHIDGIMEFDGRRRKTDIDLHVVNGRIESIRYEVK”, the protease stability score turned out to be 1.63.

As to “SHEDHLVDLAFEVWRRDLETGDEDLLKKLVDPNVRIIQGDKMYHGMDDYVERLRRIWEELGVDYIQVHLEHSRQVNGVAELDVRLKLRIGDKRREYRLHLHIEKVNGKWQIKQINIQ”, the protease stability score is 0.277.

For “SHEDKLNEEVARLIIHAWKTGNERLMLKLLDPHTRFEQGDKEMVGREHLLEMLRHRLEELGVDHIDFKDYKIDVVDGVLNIYLRIEIEVGDKHIDMIIKVIVLKFDGRWHVHEVRVEER”, the protease stability score was found to be 1.5.

With “SHEDRWIEHMVDLLEELFHTGDWEHLRHLFDPNTRSNINGKEFHGRDLAIKLVVEKMEFFKGARTDVEHRHVQGEKVELIFRLEYNGRRFHLSIRLQVVNGRVKEVNVKIDTE”, the protease stability score came out at 1.67.

In the case of “SHEEEDEHRLVIEWLEAVLTGDEDRLTELFDPNMRFVFENHQVHGRERVSKLLVRHMLEWRTRVKIEDMEYFNGRLHIDMELHVDVNGRHVNIKSLLIVEKINGKWFVRSVRVR”, the protease stability score was found to be 0.534.

In turn, “SHEEEESTKVAEDWLRHVLTGDEEDMTKLADPNTKVDVGDKHMHGMRSYWEFLHEIRIKHVHVHRIHIELVNGRAFIIIDGEIHEEVGDKEVEIKSRFILIVEKVNGRWIIREVRYQRI” displayed a protease stability score of 1.54.

As to “SHEEEIAREISRDLFRAFLTGDEDWLLKNLDPDARLHVSVGDKSEHFHGREEVMKFVREWRVHRIEIKELRVFNGRIHSRVHVYGEFNGQRFRTDIHENYNIVDGRIKEIHVEIR”, the protease stability score amounted to 1.66.

“SHEEELEEKIARILLEAWITGDEEFLFRLADPNVKLDIKYGDKRHIHIGREELLKWYRHELERFKNMKIVLHDRHIQGEKVHLHLVMHFNGQRIDVRIEVIIINGRIKHIHIEVDEK” returned a protease stability score of 2.6.

Turning to “SHEEEMAERALRKFIHSVQTGDEDSWEELLDPNVRINIGDKRHVGRHEAVKLFRQRIRHLRIDHIELRERDYYGDKLILRIIVEGRFNGQETTLELHIVFWKFDGRWIIESMEHK”, the protease stability score turned out to be 2.77.

Sequence “SHEEEMHLHVAELMLKLLLTGNEEELAKLMDPNVQTEIDGRSYHGRELIIDLIRHSREKLGVNHSELKRSHVRLVDGRLHVHLDSRFLVNGVWLDVEIEMFVLKINGKWVIESVHVRVR” displayed a protease stability score of 0.718.

Consider “SHEEHEMHNALKLLLDAWRTGDEDSLNNNADPRMKIKVNGKEFVGMEHMTHFLRELLEELRFTDSTVTELDIVNGVLISVTRLHIEVGDKRMDFHTRLVFTKVNGRWRLHSLVLI”, for which the protease stability score was found to be 1.99.

“SHEEHHLYEVAEMLLRWWRTGDEDSLYKFIDPHARVEIGEYSVHGREHIVRLMSRHLREIRLKDTDVHRIDVINGQTVLNVRLRGEINGVDTNVDARLHVVVVDGVVHSIHIEHI” showed a protease stability score of 1.24.

“SHEEHLKRDMLERSFKAWLTGDEESLHELLDPHVRVHFNGRDFHGRELVSTLIREMLRWLGIKHSRFHHIQVFDGKARLELRLEQGEFEVEIEVISLKVDGRWFQHELRFH” had a protease stability score of 1.02.

Turning to “SHEKELNERAFRILIEELMTGDEDSWRKLADPNTRHIIDGQTYHGMDFFHEHVRKMGMTIHHVELEDYRFQGEKAVLILHIDGRQGEKHDKIRITIFIEKVDGRWILREVRIG”, the protease stability score amounted to 1.17.

“SHEQEEARFFLDVLIEWFLTGDEEHMMKNADPNVRIEVGDKHLHGRELTYEWLKELRFKHHHVHRVTSQGDKVYYDVKVDGHINGVDRHSLEIIITLKFDGRWILKSIHVR” returned a protease stability score of 1.95.

In turn, “SHHEDDSEISIELTHNLIETGDFELLTELFDPNARMDYNGVTVHGRERVSEFLSRFAHHIRIKRRILRHMDLFDGQIHLHEEYHYDWDGQDIHTEVRFRSEKVNGRWVPKLLHRI” returned a protease stability score of 0.969.

“SHHEEHLHEMLRLILEAWETGDEDFLEELADPRVQLIVNGKDIHGRHVFRTMLRTHIEQMRIKRVTPRRVRNYDGRVESDIEVDGIIDGQRRKYRTTWVVEIIDGRVESLSLHFI” yielded a protease stability score of 0.723.

“SHHEEHLKRLESFLLEATDTGDEDFLTKLIDPHVKLDIDGVELHGREDWLKYFLDLGVDHVRITSSRDINGRLHLTTRMHIGDKITETRVHSEKFDGQWVIKEIIIH” returned a protease stability score of 0.823.

“SHKEEEFRRLFELTIRMFLTGDEDVMSKLMDPNVRLQVHVNGKNIEIHGWENLIKTFIDLGIDHWEFKRSDIIGDFVMLDGRIEFNGRRSNTELRFLIIDGRVKSIIIKIE”: the protease stability score is 2.05.

In the case of “SHLEEDAEKALRHLIHLFYTGDEKTLHNLADPNTRFRIGDKEYHGMEYILEFWLHIRLEDFDVERMSVQGDKIHIDSRMTLHFNGRSREIEVHILLLKYNGVWRIEEVRIH”, the protease stability score stood at 1.24.

On to “SHLEEEAKEAHDVWLHELLTGDEHQINRLLDPHTRVHIGDKDLHGRHELVRKMVETVRRVDHYHLKIKHLRVQGDKIVSTGNYTLHINGKDIHIDTRLILTKIDGVWILEEIRVE”, for which the protease stability score is 1.16.

With “SHLEEETMHIAEIFIKNELTGDERKLVELLDPNTRLHIDIGDKHIDVHGMENITKLLREIWKRLGADHVHIKDVRVQGDKADIITRIDVNGREIHSRIHILVINGKIESLKLHVE”, the protease stability score is 1.33.

Turning to “SHLEEHLKENLKREEEARRTGDFRFFSRLADPHVKIIINGVELHGMETYNEHWRQIWHDSHHMEITSIDVQGDKIEADIRIIEHGRINGVRESIVLTVRLRFEKINGRWVLTMIIIE”, the protease stability score came to 0.077.

“SHLKEDLRRALEKELQDLRTGDEEKIVRMMDPNVRLHIDGVELHGRDWLSRYAKEMRTEHIELRRFETQGNKIHIDTEVDLRYGDFRRDVHVEIIAIKVDGRWVKHETEVR” gave a protease stability score of -0.081.

For the sequence “SHLSEIAEEIMRELAHAQITGDEHTISRLLDPDTRVEFNGQELHGRDSWVKFLRELGVDHIEIRLEIKRMRIFENRVEIDGVDHIIIRYNGREERREIPSHWDLMKIDGRWSIHSVRAE”, the protease stability score stood at 1.4.

“SHNDKLWHEDIELFIEAWETGDWKLLVEMLDPHTRIEIRQGDKTIVLHGREDASRDIIEYTEFFKNVTITKDDRHIQGDKTEMHITIIIGEFVLRTIIEFDMFNGQLKTYRRKVL” showed a protease stability score of 1.18.

“SHNEEQSEREAKLEIEAYLTGDFDTLHRLADPNVRNNIEYGDKEIRLHGREEWVHQFYKLVEEYKGVKIHLQHLEYQGDKVILRIEIRVNGRERVLEIQIHVINGRSKEVNVETHVH” showed a protease stability score of 1.18.
